Drawing on paper PMC2713185, this text covers Kd for two substances.

For the experiment, the target named is TMR-PDZ(C338) domain of Dvl1 (mouse) (UniProt P51141). In words: other fluorescence titration.
UniProt P51141, sequence (P51141 251-341): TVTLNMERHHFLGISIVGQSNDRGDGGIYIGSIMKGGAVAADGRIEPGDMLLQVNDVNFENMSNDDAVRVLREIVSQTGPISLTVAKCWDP

As a reminder, the Kd is the constant that tells how readily two partners part at equilibrium. Regarding tripeptide VVV, the Kd was found to be 71 µM.
The same measure for tripeptide VWV: 2 µM.
